The test system of assay [1] is POTH1 overexpression lines. Nature of the assay: Exogenous GA3 application to POTH1 overexpression lines. It counts as in vivo, Solanum tuberosum. Conditions: shoot apex sprayed with 10 μM GA3 in 0.002% (v/v) ethanol. An excerpt: Many of the traits of the phenotypes observed in POTH1 overexpression lines were similar to GA-deficient mutants. These similarities included decreased plant height, decreased internode length, and darker green coloration of the leaves (van den Berg et al., “Morphology and [^14C]Gibberellin A12 Metabolism in Wild-Type and Dwarf Solanum Tuberosum ssp. Andigena Grown Under Long and Short Photoperiods,” J. Plant Physiol. 146:467-473 (1995), which is hereby incorporated by reference in its entirety). Because of this, exogenous GA3 was applied to determine whether the overexpression lines were responsive to GA treatment. The shoot apex of overexpression lines was sprayed to runoff with 10 μM GA3 in 0.002% (v/v) ethanol or with 0.002% (v/v) ethanol alone. […] Palisade and spongy parenchyma organization is partially rescued in leaves from line 15 treated with GA3 (FIG. 5G). The GA3-treated leaf (FIG. 5J) of the severe mutant, line 15, is more similar in morphology to the wild-type leaf (FIG. 5K). Leaflets are more ovate in form rather than the typical mouse-ear shape. Wild-type leaves have a prominent mid-vein (FIG. 5L), whereas the mid-vein (FIG. 5M, arrow) is more prominent in the mutant GA3-treated leaf than in the mutant untreated leaf (FIG. 5N). […]

Assay [2] has as its system POTH1. As to the kind of experiment: Yeast two-hybrid interaction with POTH1 (nutritional selection, beta-galactosidase). It counts as cell-based, potato. Particulars: yeast strain AH109, nutritional markers and lacZ. An excerpt:
The Matchmaker two-hybrid system (Clontech, CA) was used for the yeast two-hybrid screen. Yeast transformation and plasmid rescue into DH5-a E. coli cells were according to the manufacturer's instructions. Full-length POTH1 was cloned into the pBridge (Clontech, CA) vector and used as bait to screen the potato (S. tuberosum ‘Desireé’) stolon cDNA library in pAD-GAL4-2.1 (Stratagene, Calif.). Positive interactions were confirmed by cotransforming yeast strain AH109 with each purified pAD plasmid and pBridge: POTH1 and plating on -leucine/-tryptophan (transformation control) and -leucine/-tryptophan/-histidine/-adenine (selection) nutrient medium. Induction of the AH109 reporter gene, lacZ, was measured with a yeast β-galactosidase assay kit (Pierce Chemicals). β-galactosidase activity (FIG. 9B) was determined from a known density of yeast cells and calculated as 1000×OD420/time of color reaction (minutes)×volume of yeast culture (ml)×OD600.
The StBEL-05 deletion constructs were amplified by PCR, then cloned into the vector, pGAD, in-frame with the GAL4 activation domain. POTH1 deletion constructs were amplified by PCR, and cloned into pBridge (Clontech) in-frame with the GAL4 binding domain. Sequencing of selected cDNAs and constructs was performed at the Iowa State University DNA Facility. For deletion analysis, modified constructs of POTH1 were cloned into the pBridge vector for fusion with the DNA-binding domain of GAL4 (FIG. 10A). For StBEL-05, constructs were cloned into the pGAD vector for fusion with the activating domain of GAL4 (FIG. 10B). Deletion constructs were made from both the amino and carboxy termini. These mutants were then tested for interaction in the yeast two-hybrid system by cotransforming into yeast strain AH109 with the corresponding full-length partner (StBEL-05 in pGAL4 or POTH1 in pBridge). All constructs were sequenced to verify that they were in-frame. Positive interactions were verified for lacZ induction by using a β-galactosidase assay (Pierce Chemical Company). For POTH1, seven deletion constructs were tested (FIG. 10A). For the BEL TFs, a fusion construct of StBEL-05 (653 aa of StBEL-05 sequence) and nine deletion constructs were tested (FIG. 10B).

Assay [3] concerns ga20ox1 promoter regions P1, P2, P3 and first intron. As to the kind of experiment: Gel retardation (gel mobility shift) assay. It is filed as binding, potato. Particulars: recombinant protein from E. coli. An excerpt:
The first intron with partial flanking exon sequence (450 bp) of potato ga20ox1 and its promoter (981 bp, provided by Dr. Salomé Prat, CSIC Cantoblanco Campus, Univ. of Madrid, Spain) were used for gel mobility shift assays. Polymerase chain reaction (PCR) was used to amplify three regions of the promoter: −981 to 636 (P1), −660 to 307 (P2), and −331 to 0 (P3). About a 25-bp overlap was maintained between P1 and P2 or P2 and P3 in the chance that the protein-binding site would span the overlapped region. The first intron of this gene was amplified from potato genomic DNA by using PCR and the oligos 5′-[…]-3′ (SEQ ID NO:21) and 5′-[…]-3′ (SEQ ID NO:22) as primers. These primers were designed based on the site of the first intron of the tobacco GA20 oxidase gene Ntc12. The four fragments were purified on a 1.4% agarose gel and labeled with α^32P-dATP using Klenow fragment. […]
In the competition assays, unlabeled double-stranded DNA fragments (10×, 25×, 50×, 100×) were incubated with the recombinant protein before the addition of the radioactive probe. The dissociation rates were determined by adding 500-fold more cold DNA fragments to the DNA-binding reactions that were being incubated on ice, and loaded onto the running gel every 10 minutes. […]

The subject of assay [4] is CaMV 35S promoter. Nature of the assay: Transcription (transfection) assay, 35S GUS construct in tobacco protoplasts. It is filed as cell-based, cauliflower mosaic virus.
Assay [5] has as its system ga20ox1 promoter. As to the kind of experiment: Transcription (transfection) assay, pGAOP::GUS reporter in tobacco protoplasts. It is filed as cell-based, potato. The source says: The cauliflowermosaic virus (CaMV) 35S promoter in pBI221 (Clontech, Palo Alto, Calif.) was replaced by an enhancer fragment (−832 to −50) of the 35S promoter plus 980 bp of the ga20ox1 promoter to generate the pGAOP::β-glucuronidase (GUS) reporter construct. With this construct, the reporter GUS transcription level is augmented but its transcription may still be affected by the ga20ox1 promoter. A CaMV 35S promoter-driven luciferase (LUC) construct 35S-LUC (obtained from Dr. Takahashi, Dept. of Biological Sciences, Graduate School of Science, Univ. of Tokyo, Japan) was used as an internal control. Effector constructs were also generated by using pBI221 vector as a backbone, with the GUS gene replaced by the full-length cDNAs of either StBEL-05 or POTH1, downstream of the CaMV 35S promoter. Truncated cDNAs that encode the N-terminal protein-binding domains of StBEL-05 or POTH1 were used to generate the dominant negative constructs, StBEL5ΔC295 and POTH1ΔC122, respectively. The reporter construct with the mutated promoter was generated by site-directed PCR mutagenesis with oligos 5′-CTATTTGACTTC*ACACGGTTATTT-3′ (SEQ ID NO:23) and 5′-AAATAACCGTGTG*AAGTCAAATAG-3′ (SEQ ID NO:24).
Fully expanded leaves from three- to four-week-old tobacco plants were excised and placed in K3 basal media (Kao et al., “Nutritional Requirements for Growth of Vicia hajastana Cells and Protoplasts at a Very Low Density in Liquid Media,” Planta 126:105-110 (1975), which is hereby incorporated by reference in its entirety) supplemented with 0.4 M sucrose, 0.25% (w-v) cellulases (Karlan Research Products, Santa Rosa, CA), and 0.05% (w-v) macerases (Calbiochem, La Jolla, Calif.) and incubated for overnight at 28° C. After incubation, the liberated protoplasts were filtered through sterile cheesecloth into a Babcock bottle, and centrifuged for 10 minutes at 1000 rpm. Protoplasts were collected from the bottleneck area and washed once in K3 media with 0.4 M sucrose and resuspended in K3 media containing 0.4 M glucose to a final concentration of 4×10^6 protoplasts per milliliter. […]
Luciferase assays were performed by injecting 100-μL luciferase substrate (Promega, Madison, Wis.) into 20 μL of extract and measuring the emitted photons for 15 seconds in a TD-20 luminometer (Turner Designs, Sunnyvale, Calif.). […] A fluorescence multiwell plate reader, Fluoroskan II (MTX labs, Vienna, Va.), was used to measure GUS activity at 365 nm (excitation) and 455 nm (emission). Each sample was measured three times for both LUC and GUS activity. Relative GUS-LUC activity was calculated by dividing the ratio of GUS activity to LUC activity from different effectors with the ratio from reporter plasmid alone. Relative activities calculated from three transfection replications were presented as a mean±SE.

“Also recorded” adds a separate entry of the source.

Regarding `C=C1C[C@]23C[C@@]1(O)CC[C@H]2[C@@]12C=C[C@H](O)[C@@](C)(C(=O)O1)[C@H]2[C@@H]3C(=O)O` [GA3], in assay [1], the “effect on leaf morphology of POTH1 overexpression lines” value was “partially rescued the leaf morphology of both severe and intermediate phenotypes; also recorded: partial reversal of the leaf phenotype”; the “effect on plant height / dwarf phenotype of POTH1 overexpression lines” value is listed as “caused plants with a severe phenotype to increase in height; also recorded: completely rescued the dwarf phenotype”.

B1: pAD5-9: StBEL-05 deletion construct, aa 1 through 315 (protein)
chain: MNPNNYMQGYTTSDTQQQQQLLFLNSSPAASNALCHANIQHAPLQQQHFVGVPLPAVSLHDQINHHGLLQRMWNNQDQSQQVIVPSSTGVSATSCGGITTDLASQLAFQRPIPTPQHRQQQQQQGGLSLSLSPQLQQQISFNNNISSSSPRTNNVTIRGTLDGSSSNMVLGSKYLKAAQELLDEVVNIVGKSIKGDDQKKDNSMNKESMPLASDVNTNSSGGGESSSRQKNEVAVELTTAQRQELQMKKAKLLAMLEEVEQRYRQYHHQMQIIVLSFEQVAGIGSAKSYTQLALHAISKQFRCLKDAIAEQVKAT
modifications: left off: large carriers
B1: the “interaction with POTH1” value in assay [2] is given as “interaction with POTH1”.

B2: POTH1: KNOX transcription factor of potato, SEQ ID NO:17, 345 aa (protein, listed as Solanum tuberosum)
chain: MDDEMYGFHSTRDDYADKALMSPENLMMQTEYNNFHNYTNSSILTSNPMMFGSDDIQLSSEQTNSFSTMTLQNNDNIYQIRSGNCGGGSGSGGSSKDHNDNNNNNEDYDEDGSNVIKAKIVSHPYYPKLLNAYIDCQKVGAPAGIVNLLEEIRQQTDFRKPNATSICIGADPELDEFMETYCDILLKYKSDLSRPFDEATTFLNKIEMQLGNLCKDDGGVSSDEELSCGEADASMRSEDNELKDRLLRKFGSHLSSLKLEFSKKKKKGKLPKEARQMLLAWWDDHFRWPYPTEADKNSLAESTGLDPKQINNWFINQRKRHWKPSENMQLAVMDNLSSQFFSSDD
As for B2, in assay [3], the “binding to ga20ox1 regulatory regions” value is given as “only formed a complex with P1”. In addition, in assay [4], the “effect on activity of the CaMV 35S promoter” value was “Neither StBEL-05 nor POTH1 showed any effect”. In assay [5] (co-transfected effector, tobacco protoplasts), the “decrease of relative GUS-LUC activity of the pGAOP::GUS reporter” value was “more than half”. Besides, the “repression of ga20ox1 promoter with point mutation in the binding site” value in assay [5] (mutated reporter construct) was “no detectable repression of promoter activity”.

Values taken from patent US7579150B1, “Mobile RNA acts as a signal to regulate plant growth and development” (Iowa State University Research Foundation, Inc., priority 2004, dated 2009).
